# Target: Fzd2 pTyr552 peptide (phosphorylated 18-mer)
# Assay: SPR
substance,measurement,value
GST-FynSH2 (SH2 domain of Fyn) (from UniProt P06241 149-246) (domain or fragment),Kd,2.1 nM

# Source: article PMC4243058
